The values below come from publication PMC3424545 (Nucleic Acids Research, 2012).

In this assay the target is T1, His6-tagged Mcm10 (human, UniProt Q7L590 1-875).
T1 sequence (looked up): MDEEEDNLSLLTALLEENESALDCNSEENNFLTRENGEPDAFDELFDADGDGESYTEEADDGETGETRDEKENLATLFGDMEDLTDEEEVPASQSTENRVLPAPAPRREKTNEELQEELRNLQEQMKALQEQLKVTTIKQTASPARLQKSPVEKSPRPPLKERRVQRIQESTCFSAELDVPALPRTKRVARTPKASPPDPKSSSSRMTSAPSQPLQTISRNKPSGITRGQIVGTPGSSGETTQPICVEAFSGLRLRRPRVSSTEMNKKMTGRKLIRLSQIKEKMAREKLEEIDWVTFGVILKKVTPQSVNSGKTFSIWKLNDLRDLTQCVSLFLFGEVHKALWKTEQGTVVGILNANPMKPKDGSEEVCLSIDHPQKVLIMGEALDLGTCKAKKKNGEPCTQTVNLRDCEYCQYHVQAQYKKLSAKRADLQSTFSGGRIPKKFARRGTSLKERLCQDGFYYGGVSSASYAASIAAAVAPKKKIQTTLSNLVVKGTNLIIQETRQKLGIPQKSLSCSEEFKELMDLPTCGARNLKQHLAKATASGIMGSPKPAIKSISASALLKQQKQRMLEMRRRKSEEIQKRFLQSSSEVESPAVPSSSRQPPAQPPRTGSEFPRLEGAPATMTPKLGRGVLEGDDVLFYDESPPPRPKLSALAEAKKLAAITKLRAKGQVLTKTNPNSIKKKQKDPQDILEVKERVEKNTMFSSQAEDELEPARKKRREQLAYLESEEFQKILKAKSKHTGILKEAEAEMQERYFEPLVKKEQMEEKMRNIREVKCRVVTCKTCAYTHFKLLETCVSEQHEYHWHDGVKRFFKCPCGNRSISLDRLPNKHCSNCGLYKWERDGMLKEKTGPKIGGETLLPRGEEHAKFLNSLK
Nature of the assay: pull-down.

B1: GST-tagged C-terminus VprBP (864-1507) (domain or fragment)
chain: not shown
For the molecule B1, the binding result is listed as “binds”.
